Positions count from the first letter of the chain named. Numbers in names are those of the source.

T1: EsCas13d, nuclease-dead (Eubacterium siraeum, UniProt B0MS50, R295A;H300A;R849A;H854A)
T1 sequence: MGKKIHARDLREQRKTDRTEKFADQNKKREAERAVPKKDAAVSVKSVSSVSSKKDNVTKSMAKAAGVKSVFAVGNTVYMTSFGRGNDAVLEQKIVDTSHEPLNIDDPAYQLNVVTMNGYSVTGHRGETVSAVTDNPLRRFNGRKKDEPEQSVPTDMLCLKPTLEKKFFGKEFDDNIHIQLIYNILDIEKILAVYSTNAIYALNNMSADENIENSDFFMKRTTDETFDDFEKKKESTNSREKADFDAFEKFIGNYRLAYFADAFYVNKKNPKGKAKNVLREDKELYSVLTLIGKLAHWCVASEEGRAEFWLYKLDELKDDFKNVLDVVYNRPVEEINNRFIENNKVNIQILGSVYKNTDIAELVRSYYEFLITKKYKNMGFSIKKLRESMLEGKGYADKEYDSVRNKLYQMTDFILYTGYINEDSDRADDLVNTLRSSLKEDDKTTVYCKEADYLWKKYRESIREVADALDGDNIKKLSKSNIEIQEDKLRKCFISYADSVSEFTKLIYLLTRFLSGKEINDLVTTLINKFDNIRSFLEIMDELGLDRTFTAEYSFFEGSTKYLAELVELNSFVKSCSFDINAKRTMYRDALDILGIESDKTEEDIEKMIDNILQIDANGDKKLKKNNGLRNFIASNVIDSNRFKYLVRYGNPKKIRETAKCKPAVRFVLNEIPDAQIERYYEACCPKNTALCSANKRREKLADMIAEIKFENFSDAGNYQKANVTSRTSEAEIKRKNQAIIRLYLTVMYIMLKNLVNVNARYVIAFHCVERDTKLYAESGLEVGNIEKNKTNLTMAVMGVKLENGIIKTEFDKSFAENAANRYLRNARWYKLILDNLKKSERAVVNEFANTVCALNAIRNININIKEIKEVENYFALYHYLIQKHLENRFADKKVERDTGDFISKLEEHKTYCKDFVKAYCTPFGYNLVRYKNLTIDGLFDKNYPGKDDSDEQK

B1: target 1 insU 3' of 20,insU 3' of 15 (mixed)
RNA 1: CACCCGUGCAAAAAUGCAGGGGUCUAAAACUGAGCGGAUAACCUCUCUAUGG
RNA 2: GGGAAUGGAUCCACAUCUACGAAUUCGUACCAUUAGAGUAGGUUAUCCGCUCACCGAGAUCGGAAGAGCACACGU
B2: target 1 insA 3' of 17,insC 3' of 17 (mixed)
RNA 1: B1 RNA 1
RNA 2: B1 RNA 2 with U34A, A35G, G36A, A37C, G38A, U39G
B3: target 1 G5U,G13U (mixed)
RNA 1: B1 RNA 1
RNA 2: GGGAAUGGAUCCACAUCUACGAAUUCGUACCAUAGAGAUGUUAUCCUCUCACCGAGAUCGGAAGAGCACACGU
B4: target 1 C7U,G17A (mixed)
RNA 1: B1 RNA 1
RNA 2: B3 RNA 2 with G35A, U39G, C45U, U47G
B5: target 1 insG 3' of 19,insU 3' of 12 (mixed)
RNA 1: B1 RNA 1
RNA 2: B1 RNA 2 with U34G, U39A, A40G, G42U
B6: target 1 C4G,C6U (mixed)
RNA 1: B1 RNA 1
RNA 2: B3 RNA 2 with U39G, C46U, U47G, C48G
B7: target 1 insC 3' of 22,insA 3' of 2 (mixed)
RNA 1: B1 RNA 1
RNA 2: GGGAAUGGAUCCACAUCUACGAAUUCGUACCCAUAGAGAGGUUAUCCGCUCAACCGAGAUCGGAAGAGCACACGU
B8: target 1 U11C,G12A (mixed)
RNA 1: B1 RNA 1
RNA 2: B3 RNA 2 with U39G, G40A, U41C, U47G
B9: target 1 insU 3' of 13,insU 3' of 4 (mixed)
RNA 1: B1 RNA 1
RNA 2: GGGAAUGGAUCCACAUCUACGAAUUCGUACCAUAGAGAGUGUUAUCCGCUUCACCGAGAUCGGAAGAGCACACGU
B10: target 1 insA 3' of 6,insA 3' of 6 (mixed)
RNA 1: B1 RNA 1
RNA 2: B9 RNA 2 with U40G, G41U, U43A, A44U, U45C, C47A, G48A, C49G, U50C
B11: target 1 insC 3' of 22,insG 3' of 3 (mixed)
RNA 1: B1 RNA 1
RNA 2: B7 RNA 2 with C51G, A52C
B12: target 1 insU 3' of 20,insU 3' of 6 (mixed)
RNA 1: B1 RNA 1
RNA 2: B1 RNA 2 with U39A, A40G, G42U, U44A, A45U, U46C, C48U
B13: target 1 U11G,G12C (mixed)
RNA 1: B1 RNA 1
RNA 2: B3 RNA 2 with U39G, G40C, U41G, U47G
B14: target 1 insG 3' of 16,insC 3' of 5 (mixed)
RNA 1: B1 RNA 1
RNA 2: B9 RNA 2 with A38G, G39A, U40G, U50C
B15: target 1 insA 3' of 22,insG 3' of 19 (mixed)
RNA 1: B1 RNA 1
RNA 2: B1 RNA 2 with C31A, A32C, U33A, A35G, G36A, A37G, G38A, U39G
B16: target 1 insG 3' of 14,insA 3' of 11 (mixed)
RNA 1: B1 RNA 1
RNA 2: B9 RNA 2 with U40G, U43A, A44U, U45A, C46U, G48C, C49G, U50C
B17: target 1 insA 3' of 19,insC 3' of 8 (mixed)
RNA 1: B1 RNA 1
RNA 2: B1 RNA 2 with U34A, U39A, A40G, G42U, U44A, A45U, U46C
B18: target 1 insC 3' of 8,insU 3' of 6 (mixed)
RNA 1: B1 RNA 1
RNA 2: B9 RNA 2 with U40G, G41U, U43A, A44U, U45C, G48U, C49G, U50C
B19: target 1 insU 3' of 15,insA 3' of 10 (mixed)
RNA 1: B1 RNA 1
RNA 2: B9 RNA 2 with A38U, G39A, U40G, U45A, C46U, G48C, C49G, U50C
B20: target 1 insC 3' of 19,insA 3' of 7 (mixed)
RNA 1: B1 RNA 1
RNA 2: B1 RNA 2 with U34C, U39A, A40G, G42U, U44A, A45U, U46C, C47A
B21: target 1 A1G,G15C (mixed)
RNA 1: B1 RNA 1
RNA 2: B3 RNA 2 with G37C, U39G, U47G, A51G
B22: target 1 insG 3' of 14,insU 3' of 12 (mixed)
RNA 1: B1 RNA 1
RNA 2: B9 RNA 2 with U40G, A44U, U45A, C46U, G48C, C49G, U50C
B23: target 1 G5C,U11G (mixed)
RNA 1: B1 RNA 1
RNA 2: B3 RNA 2 with U39G, U41G, U47C
B24: target 1 insC 3' of 8,insC 3' of 5 (mixed)
RNA 1: B1 RNA 1
RNA 2: B9 RNA 2 with U40G, G41U, U43A, A44U, U45C, U50C
B25: target 1 insU 3' of 18,insA 3' of 11 (mixed)
RNA 1: B1 RNA 1
RNA 2: B1 RNA 2 with U34A, A35U, U39A, A40G, G42U, U43A
B26: target 1 insA 3' of 19,insA 3' of 19 (mixed)
RNA 1: B1 RNA 1
RNA 2: B1 RNA 2 with U34A, G36A, A37G, G38A, U39G
B27: target 1 insA 3' of 22,insG 3' of 1 (mixed)
RNA 1: B1 RNA 1
RNA 2: B7 RNA 2 with C31A, A53G
B28: target 1 insA 3' of 8,insG 3' of 8 (mixed)
RNA 1: B1 RNA 1
RNA 2: B9 RNA 2 with U40G, G41U, U43A, A44U, U45A, C46G, G48C, C49G, U50C

The target of the series is T1, EsCas13d, nuclease-dead. In words: crRNA (strand 1, pre-loaded); Mg2+; 40 mM Tris-HCl pH 7.5, 150 mM NaCl, 6 mM MgCl2, 1 mM DTT, 0.1% Tween-20, 0.2 mg/ml BSA; 25 C; 10 min per concentration, then washed. Particulars: tags: His6-TwinStrep-SUMO cleaved; N-terminal SNAP kept (SNAP-Surface 488); label: 3' end held by stalled T7 RNA polymerase.
For B1, the Kd stood at 19.1 ± 1.6 nM.

As for B2, binding was put at a Kd of 41.4 ± 2.9 nM. The molecule B3 returned a Kd of 64 ± 8 nM.

In turn, B4 showed a Kd of 34 ± 4 nM. On to B5, for which the Kd stood at 48 ± 5 nM. Molecule B6 had a Kd of 3.83 ± 0.2 nM. Then B7, with 24 ± 4 nM; and B8, with 8.9 ± 0.4 nM; and B9, with 21 ± 2.6 nM. Then B10, with 17.4 ± 0.9 nM; and B11, with 11 ± 0.7 nM; and B12, with 15.4 ± 0.6 nM. Molecule B13 returned a dissociation constant (Kd) of 17 ± 1 nM. In the case of B14, binding was characterised by a dissociation constant (Kd) of 52 ± 5 nM.

B15 showed a Kd of 51 ± 7 nM. The value for B16 was 39.2 ± 2.6 nM; that for B17 was 34 ± 4 nM; that for B18 was 21.1 ± 1.5 nM. The value for B19 was 20.2 ± 1.1 nM; that for B20 was 26.6 ± 2.4 nM; that for B21 was 58 ± 9 nM. The value for B22 was 16.4 ± 2.4 nM; that for B23 was 37 ± 5 nM.

For the molecule B24, binding was put at a Kd of 14.6 ± 0.7 nM. Then B25, with 68 ± 6 nM; and B26, with 22.1 ± 2.4 nM; and B27, with 11.2 ± 0.4 nM. The value for B28 was 33.1 ± 2.6 nM.

The term Kd denotes the concentration at which binding is half-saturated. A lower Kd goes with higher affinity.

Values taken from paper PMC10786891, “Massively parallel profiling of RNA-targeting CRISPR-Cas13d”.
